What was measured:
[1] = molecular target: soluble recombinant human αvβ6 (human) (UniProt P06756); assay: KinExA, solution affinity for soluble αvβ6
[2] = molecular target: αvβ6 on β6-transfected SW480 cells (UniProt P06756); assay: cell-based or functional assay
[3] = molecular target: soluble recombinant human αvβ6 (human) (UniProt P06756); assay: ELISA on plate-bound soluble αvβ6 in EDTA (10 mM) [panel B]
[4] = molecular target: soluble recombinant human αvβ6 (human) (UniProt P06756); assay: ELISA on plate-bound soluble αvβ6 in Ca/Mg [panel B]
[5] = molecular target: αvβ6 on β6-transfected SW480 cells (UniProt P06756); assay: adhesion of SW480β6 cells to LAP, % binding; blocked ligand LAP [SW480β6 panel]
[6] = molecular target: soluble recombinant human αvβ6 (human) (UniProt P06756); assay: ELISA on plate-bound soluble αvβ6 in Mn (1 mM MnCl2) [panel B]
[7] = molecular target: soluble recombinant human αvβ6 (human) (UniProt P06756); assay: ELISA, coated hsαvβ6
[8] = molecular target: αvβ6 of human tumor cells and tissues (Detroit 562 cells, SCC-14 cells, carcinoma sections) (human) (UniProt P06756); assay: adhesion of Detroit562 cells to LAP, % binding; blocked ligand LAP [Detroit562 panel]
Chain of αvβ6 of human tumor cells and tissues (Detroit 562 cells, SCC-14 cells, carcinoma sections) (human) (P06756 31-1048, chain 1 of 2): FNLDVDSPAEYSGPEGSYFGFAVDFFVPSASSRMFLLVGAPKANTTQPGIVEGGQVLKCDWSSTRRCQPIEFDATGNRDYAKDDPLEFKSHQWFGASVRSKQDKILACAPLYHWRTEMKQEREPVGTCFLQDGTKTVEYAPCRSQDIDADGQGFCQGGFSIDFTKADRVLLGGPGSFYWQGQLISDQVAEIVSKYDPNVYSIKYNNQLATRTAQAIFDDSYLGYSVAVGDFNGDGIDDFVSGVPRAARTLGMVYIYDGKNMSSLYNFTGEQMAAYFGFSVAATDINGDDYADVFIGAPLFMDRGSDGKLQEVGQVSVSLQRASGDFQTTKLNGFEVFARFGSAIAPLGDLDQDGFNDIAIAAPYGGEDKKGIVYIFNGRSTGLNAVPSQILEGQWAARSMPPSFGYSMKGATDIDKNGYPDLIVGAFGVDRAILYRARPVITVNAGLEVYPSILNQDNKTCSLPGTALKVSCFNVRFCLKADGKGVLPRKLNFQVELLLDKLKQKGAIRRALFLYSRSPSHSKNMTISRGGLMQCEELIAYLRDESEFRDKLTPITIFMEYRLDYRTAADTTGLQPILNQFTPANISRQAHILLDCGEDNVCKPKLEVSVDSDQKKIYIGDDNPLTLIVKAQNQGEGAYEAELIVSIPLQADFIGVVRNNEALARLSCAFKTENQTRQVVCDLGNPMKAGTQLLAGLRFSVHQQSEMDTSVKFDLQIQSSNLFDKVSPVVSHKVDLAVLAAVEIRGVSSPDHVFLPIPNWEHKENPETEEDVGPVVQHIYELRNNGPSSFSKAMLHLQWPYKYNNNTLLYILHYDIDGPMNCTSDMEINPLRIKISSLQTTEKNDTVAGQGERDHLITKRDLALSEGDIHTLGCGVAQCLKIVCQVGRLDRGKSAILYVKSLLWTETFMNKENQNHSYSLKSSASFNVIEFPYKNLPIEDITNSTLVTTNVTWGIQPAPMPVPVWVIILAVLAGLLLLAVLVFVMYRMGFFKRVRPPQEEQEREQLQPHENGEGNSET
Chain of αvβ6 of human tumor cells and tissues (Detroit 562 cells, SCC-14 cells, carcinoma sections) (human) (P18564 22-788, chain 2 of 2, further chain): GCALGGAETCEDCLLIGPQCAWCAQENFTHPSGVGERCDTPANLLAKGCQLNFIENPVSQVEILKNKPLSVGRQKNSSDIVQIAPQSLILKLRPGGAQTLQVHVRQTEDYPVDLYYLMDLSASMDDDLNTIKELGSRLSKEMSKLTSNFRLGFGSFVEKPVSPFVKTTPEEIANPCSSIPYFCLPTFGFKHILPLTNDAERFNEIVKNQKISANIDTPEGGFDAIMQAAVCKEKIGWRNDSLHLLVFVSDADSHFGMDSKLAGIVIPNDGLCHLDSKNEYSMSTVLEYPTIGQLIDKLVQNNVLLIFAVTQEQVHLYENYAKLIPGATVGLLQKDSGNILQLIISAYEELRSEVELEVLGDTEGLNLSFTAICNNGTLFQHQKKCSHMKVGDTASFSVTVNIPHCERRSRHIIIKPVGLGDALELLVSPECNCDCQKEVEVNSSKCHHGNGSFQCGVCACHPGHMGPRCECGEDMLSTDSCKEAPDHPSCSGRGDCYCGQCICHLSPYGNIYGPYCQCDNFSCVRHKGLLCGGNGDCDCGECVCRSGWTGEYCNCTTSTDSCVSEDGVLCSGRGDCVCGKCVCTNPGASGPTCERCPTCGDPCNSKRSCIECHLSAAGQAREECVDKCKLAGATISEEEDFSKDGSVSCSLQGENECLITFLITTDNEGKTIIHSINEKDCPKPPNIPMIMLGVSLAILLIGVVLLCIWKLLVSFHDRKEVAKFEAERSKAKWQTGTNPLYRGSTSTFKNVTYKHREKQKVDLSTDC

[9] = molecular target: αvβ6 on β6-transfected FDC-P1 cells (murine) (UniProt P43406); assay: β6-FDC-P1 cells to coated LAP, blocking
[10] = molecular target: soluble recombinant human αvβ6 (human) (UniProt P06756); assay: biotin-hsαvβ6 to coated LAP, blocking
[11] = molecular target: soluble recombinant human αvβ6 (human) (UniProt P06756); assay: ELISA on plate-bound soluble αvβ6 in Mn (1 mM MnCl2) [panel C]
[12] = molecular target: soluble recombinant human αvβ6 (human) (UniProt P06756); assay: KinExA, solution affinity for soluble αvβ6, with CaCl2 and MgCl2
[13] = molecular target: αvβ6 on β6-transfected FDC-P1 cells (murine) (UniProt P43406); assay: adhesion of labelled β6-transfected FDC-P1 cells to plate-bound LAP, % binding; blocked ligand LAP
[14] = molecular target: αvβ6 on β6-transfected FDC-P1 cells (murine) (UniProt P43406); assay: as above; remark: listed apart in the source
[15] = molecular target: αvβ6 on β6-transfected FDC-P1 cells (murine) (UniProt P43406); assay: as above; remark: listed apart in the source
[16] = molecular target: soluble recombinant human αvβ6 (human) (UniProt P06756); assay: ELISA on plate-bound soluble αvβ6 in Ca/Mg [panel C]
[17] = molecular target: soluble recombinant human αvβ6 (human) (UniProt P06756); assay: ELISA on plate-bound soluble αvβ6 in Mn (1 mM MnCl2) [panel F]
[18] = molecular target: soluble recombinant human αvβ6 (human) (UniProt P06756); assay: ELISA on plate-bound soluble αvβ6 in Ca/Mg [panel F]
[19] = molecular target: soluble recombinant human αvβ6 (human) (UniProt P06756); assay: ELISA on plate-bound soluble αvβ6 in EDTA (10 mM) [panel F]

Chain of soluble recombinant human αvβ6 (human) (P06756 31-992, chain 1 of 2): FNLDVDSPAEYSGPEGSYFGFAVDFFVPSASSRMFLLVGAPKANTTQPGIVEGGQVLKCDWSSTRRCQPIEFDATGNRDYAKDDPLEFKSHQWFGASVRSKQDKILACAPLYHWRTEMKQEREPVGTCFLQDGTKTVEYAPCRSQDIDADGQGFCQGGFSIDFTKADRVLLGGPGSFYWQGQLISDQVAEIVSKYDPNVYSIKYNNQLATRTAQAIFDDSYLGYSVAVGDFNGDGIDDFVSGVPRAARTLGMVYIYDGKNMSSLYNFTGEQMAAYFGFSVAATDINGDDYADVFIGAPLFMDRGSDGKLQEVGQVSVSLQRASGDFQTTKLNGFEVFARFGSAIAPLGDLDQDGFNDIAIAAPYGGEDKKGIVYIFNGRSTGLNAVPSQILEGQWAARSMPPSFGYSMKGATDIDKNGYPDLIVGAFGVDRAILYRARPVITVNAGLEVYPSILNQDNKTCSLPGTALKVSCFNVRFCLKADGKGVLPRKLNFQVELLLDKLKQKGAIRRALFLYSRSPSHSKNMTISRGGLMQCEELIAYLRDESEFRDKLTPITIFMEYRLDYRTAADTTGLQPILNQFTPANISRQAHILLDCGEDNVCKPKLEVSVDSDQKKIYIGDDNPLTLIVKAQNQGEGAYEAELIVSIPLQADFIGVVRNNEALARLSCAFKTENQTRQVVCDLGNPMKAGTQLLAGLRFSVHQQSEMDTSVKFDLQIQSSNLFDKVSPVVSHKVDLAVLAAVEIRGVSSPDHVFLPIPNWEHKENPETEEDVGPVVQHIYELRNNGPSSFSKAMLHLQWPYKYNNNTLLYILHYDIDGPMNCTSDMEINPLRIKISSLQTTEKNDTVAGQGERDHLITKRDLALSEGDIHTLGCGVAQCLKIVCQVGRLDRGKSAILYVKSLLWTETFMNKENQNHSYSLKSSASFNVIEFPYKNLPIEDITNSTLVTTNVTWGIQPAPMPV
Chain of soluble recombinant human αvβ6 (human) (P18564 22-709, chain 2 of 2, further chain): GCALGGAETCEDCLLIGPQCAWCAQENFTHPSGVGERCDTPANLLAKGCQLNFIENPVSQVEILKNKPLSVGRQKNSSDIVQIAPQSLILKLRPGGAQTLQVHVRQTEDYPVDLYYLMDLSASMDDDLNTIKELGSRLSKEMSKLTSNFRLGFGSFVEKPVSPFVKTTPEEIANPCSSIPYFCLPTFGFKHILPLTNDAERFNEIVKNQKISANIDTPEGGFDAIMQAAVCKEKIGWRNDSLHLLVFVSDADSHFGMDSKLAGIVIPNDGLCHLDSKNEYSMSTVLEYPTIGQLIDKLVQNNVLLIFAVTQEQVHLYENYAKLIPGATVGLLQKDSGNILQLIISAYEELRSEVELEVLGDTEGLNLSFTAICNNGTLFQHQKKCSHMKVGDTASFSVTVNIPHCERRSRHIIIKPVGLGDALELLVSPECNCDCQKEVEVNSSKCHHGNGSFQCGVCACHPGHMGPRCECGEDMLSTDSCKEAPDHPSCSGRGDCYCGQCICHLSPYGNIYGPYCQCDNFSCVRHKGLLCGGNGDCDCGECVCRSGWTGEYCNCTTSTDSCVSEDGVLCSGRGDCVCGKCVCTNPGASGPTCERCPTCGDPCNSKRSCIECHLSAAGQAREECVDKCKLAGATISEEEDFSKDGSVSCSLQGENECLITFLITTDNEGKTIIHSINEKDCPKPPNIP
Chain of αvβ6 on β6-transfected SW480 cells (P06756 31-1048, chain 1 of 2): as the sequence (P06756 31-1048, chain 1 of 2) above
Chain of αvβ6 on β6-transfected SW480 cells (P18564 22-788, chain 2 of 2, further chain): as the sequence (P18564 22-788, chain 2 of 2, further chain) above

Kd [1] [pM] | PAI-1 luciferase IC50 [2] [µg/mL] | EC50 (read off the curve) [3] [µg/mL] | EC50 (read off the curve) [4] [µg/mL] | IC50 (read off the curve) [5] [µg/mL] | EC50 (read off the curve) [6] [µg/mL] | EC50 [7] [µg/mL] | IC50 (read off the curve) [8] [µg/mL] | IC50 [9] [µg/mL] | IC50 [10] [µg/mL] | EC50 (read off the curve) [11] [µg/mL] | Kd [12] [pM] | IC50 [13] [µg/mL] | IC50 [14] [µg/mL] | IC50 [15] [µg/mL] | EC50 (read off the curve) [16] [µg/mL] | EC50 (read off the curve) [17] [µg/mL] | EC50 (read off the curve) [18] [µg/mL] | EC50 (read off the curve) [19] [µg/mL] | Substance
15.6 | 0.375 | 0.09 | 0.09 | 0.03 | 0.09 | 0.0767 | 0.04 | 0.017 | 0.271 | – | – | – | – | – | – | – | – | – | 6.3G9 (antibody)
– | 0.312 | – | – | – | – | 0.0175 | – | 0.023 | 0.169 | 0.03 | 22.8 | 0.061 | 0.101 | 0.083 | 0.02 | – | – | – | 6.8G6 (antibody)
– | – | – | – | – | – | 0.0271 | – | – | 0.229 | – | – | – | – | – | – | 0.01 | 0.01 | 0.01 | L230 (antibody)

Reference: patent publication US20090186036A1
